In the DeepSol protein solubility set:

Experiment: soluble on expression in E. coli; label from the status in PepcDB or PDB records
With “MGSDKIHHHHHHMSSVTLSGRGTLGDRQVYRLGYGAMQLAGPGVFGPPKDPEEAVRVLQAAVEAGINHIDTSDFYGPHVTNQLIRKALHPYPDDLCIVTKVSARRDEKGNWLPAMSPAELTQAVEDNLRHLGLEVLEVVNLRSMLSPHGPVEGSLEAPLATLLELKERGLIRHIGLSNVTAKQVADAQKMTPIVCVQNLYNVAHRADDALVDALAAQHIAWVPFFPLGGFTPLQAQELNEVAASLEATPMQVALAWLLQRAPNILLIPGTSSRTHLAENIAAAELVLPAEALRTLDNIATAARR” the “soluble on expression in E. coli” value was “not soluble”.
In the case of “MSLNPVNGAILSIEISHPNGFEIDENISAYHDAEYYMDRIFDSGNYDSLIVLTSIKILSQHWEIDNDMVVTSQSIRQLAIDTINSKAESGTIKNYWFKLQSLCEEFKNLSQETLSLSVFDNQVLTLNVNGHGIFRKSAFFESFANQKLNSADGKLMLIFNKFETFISRKSYHKLHEELLQLRKISANEITNLFTKHIEGKISTNEIQTILKDLEQIPGIVEIVKSLIGSSGFELIVDANSISSKELGAFHKISTVMIFKNIMETHKTLLLDLVVLFLTCETNDQIVEFVNQIRATLVQYDVMEVVFTTCLNKGEVETKNMGQVQNSIFWSSVVATHSQLKRLIESLQLNDGYEYFYNNVLPDDYLVDVVIELINNKEYFFLQKKFLTKLNQEGHHHHHH”, the “soluble on expression in E. coli” value is reported as “not soluble”.
For “MSLIAIYVRVSTEEQAIKGSSIDSQIEACIKKAGTKDVLKYADEGFSGELLERPALNRLREDASKGLISQVICYDPDRLSRKLMNQLIIDDELRKRNIPLIFVNGEYANSPEGQLFFAMRGAISEFEKAKIKERTSSGRLQKMKKGMIIKDSKLYGYKFVKEKRTLEILEEEAKIIRMIFNYFTDHKSPFFGRVNGIALHLTQMGVKTKKGEGHHHHHH”, the “soluble on expression in E. coli” value was “not soluble”.
In the case of “MIPIERHQKILALVAERGVVSIAELTERLGVSHMTIRRDVQKLEEQGAVLSVSGGVRSTQRLAIEPSHQDKTMMFSRQKQAIGTSAALHIPRNSCIYLDAGTTTLALARQLEDRDDLLVVTNDFVIANFLIESSQCRMIHSGGTLCRKNRSCIGEAAAHSLRNLSIDIAFISASCWGLRGISTPDEDKVPVKRAISEASSKRVLLADASKYGKVATYLALPLTAFDVVITDNSLSSTVYEELAEKALELIIASPPR”, the “soluble on expression in E. coli” value is reported as “not soluble”.
In the case of “MGSDKIHHHHHHMFHPIEEALDALKKGEVIIVVDDEDRENEGDFVALAEHATPEVINFMATHGRGLICTPLSEEIADRLDLHPMVEHNTDSHHTAFTVSIDHRETKTGISAQERSFTVQALLDSKSVPSDFQRPGHIFPLIAKKGGVLKRAGHTEAAVDLAEACGSPGAGVICEIMNEDGTMARVPELIEIAKKHQLKMITIKDLIQYRYNLTTLVEREVDITLPTDFGTFKVYGYTNEVDGKEHVAFVMGDVPFGEEPVLVRVHSECLTGDVFGSHRCDCGPQLHAALNQIAAEGRGVLLYLRQEGRGIGLINKLKAYKLQEQGYDTVEANEALGFLPDLRNYGIGAQILRDLGVRNMKLLTNNPRKIAGLEGYGLSISERVPLQMEAKEHNKKYLQTKMNKLGHLLHF”, the “soluble on expression in E. coli” value is reported as “not soluble”.
For “MGSDKIHHHHHHMRKPKITVIGGGTGSPVILKSLREKDVEIAAIVTVADDGGSSGELRKNMQQLTPPGDLRNVLVAMSDMPKFYEKVFQYRFSEDAGAFAGHPLGNLIIAGLSEMQGSTYNAMQLLSKFFHTTGKIYPSSDHPLTLHAVFQDGTEVAGESHIVDHRGIIDNVYVTNALNDDTPLASRRVVQTILESDMIVLGPGSLFTSILPNIVIKEIGRALLETKAEIAYVCNIMTQRGETEHFTDSDHVEVLHRHLGRPFIDTVLVNIEKVPQEYMNSNRFDEYLVQVEHDFVGLCKQVSRVISSNFLRLENGGAFHDGDLIVDELMRIIQVKK”, the “soluble on expression in E. coli” value was “not soluble”.
In the case of “GQLQEPYETVTIDVEEQHQGPIMEKMGVRKAELTDMAPDGTGRIRMDFIMPSRGLIGFQTEFMTLTSGSGLIYHTFFEYGPHKGGEIGQRKNGVMIGNATGKALTNAIFNLQSRGRMLIGHGVDIYEG”, the “soluble on expression in E. coli” value is reported as “not soluble”.
For “MSLRPGIKALAEATGYSIATVSKALNGSPMVAPATKALIHRAAADIGYRANARGMALRTGRTCQAAVLMPVTAARDYEWDGVEYTQILSGISQALEGSDYRMSVHVVRNVEDGCEVARRIIDEGLADGLIFSGIRADDPRIDLLDESRFPFVSLGRCRKPLDYAHVDIDNEWAAHAATARLIAGGHRRIALVNPLRHLSYAEDRVDGFLRAFREANLSPSDDLIAEGDLSTHFGRESALGLLDAARPPTAFVCSNESTTLGVLSGLGSRGRRIGVDVDVVAYDDINVSAYFTPPITTFYQPIEVLGRTLGEFLLRRMAGEDARSLKQVFRPRLIERQPDSLGGREGHHHHHH”, the “soluble on expression in E. coli” value was “soluble”.
With “MLKVEMLSTGDEVLHGQIVDTNAAWLADFFFHQGLPLSRRNTVGDNLDDLVTILRERSQHADVLIVNGGLGPTSDDLSALAAATAKGEGLVLHEAWLKEMERYFHERGRVMAPSNRKQAELPASAEFINNPVGTACGFAVQLNRCLMFFTPGVPSEFKVMVEHEILPRLRERFSLPQPPVCLRLTTFGRSESDLAQSLDTLQLPPGVTMGYRSSMPIIELKLTGPASEQQAMEKLWLDVKRVAGQSVIFEGTEGLPAQISRELQNRQFSLTLSEQFTGGLLALQLSRAGAPLLACEVVPSQEETLAQTAHWITERRANHFAGLALAVSGFENEHLNFALATPDGTLALRVRFSTTRYSLAIRQEVCAMMALNMLRRWLNGQDIASEHGWIEVVESMTLSV” the “soluble on expression in E. coli” value was “soluble”.
For “MGHHHHHHSHMTDQTYCDRLVQDTPFLTGHGRLSEQQVDRIILQLNRYYPQILTNKEAEKFRNPKASLRVRLCDLLSHLQRSGERDCQEFYRALYIHAQPLHSRLPSRHALRKFHITNHACLVLARGGHPSLPLMAWMSSMTTQVCCSPGLASPLASAPPQRPPSGPEGRVWQAQAVQMLVSVSHFLPLPPSLSHGSFHTAWGILYVHSCPSFSNLIPRGSLHVCVDSNLVPTAAWRS”, the “soluble on expression in E. coli” value was “not soluble”.
With “MYEAKDYKSDQYVRWCPGCGDHAVVVTLQKAMAEIGIPPHQTAVMSGIGCSSRLPYYMNTYGFHTIHGRGAAIATGVKTANPELSVWLASGDGDSLAIGGNHFIHAVRRNIDINAVLFNNRIYGLTKGQYSPTSARGFVSKSSPYGTVEDPFIPAELVLGARGNFFARAIDVDMKTLQECFVASARHRGFAVTEVLVNCVIFNDGTHKDRSHKDIRADRTITLRHGEKMIFGANRDKGIVLEGLKLRAVTIGEDGYTLDDVLVHDKYEQDVTLHHLLAMMGYTDDSMPIALGVIRDVEAPCYDRAVEAQIEEIQQKNPIRKLHDLLIQGDVWEIK” the “soluble on expression in E. coli” value was “not soluble”.
In the case of “SAGNAEPPPAGAACPQDRRSCSGRAGGDRVWEDGEHPAKKLKSGGDEERREKPPKRKIVLLMAYSGKGYHGMQRNVGSSQFKTIEDDLVSALVRSGCIPENHGEDMRKMSFQRCARTDKGVSAAGQVVSLKVWLIDDILEKINSHLPSHIRILGLKRVTGGFNSKNRCDARTYCYLLPTFAFAHKDRDVQDETYRLSAETLQQVNRLLACYKGTHNFHNFTSQKGPQDPSACRYILEMYCEEPFVREGLEFAVIRVKGQSFMMHQIRKMVGLVVAIVKGYAPESVLERSWGTEKVDVPKAPGLGLVLERVHFEKYNQRFGNDGLHEPLDWAQEEGKVAAFKEEHIYPTIIGTERDERSMAQWLSTLPIHNFSATALTAGGTGAKVPSPLEGSEGDGDTD”, the “soluble on expression in E. coli” value is reported as “soluble”.
With “MGPAPRVLELFYDVLSPYSWLGFEVLCRYQHLWNIKLKLRPALLAGIMKDSGNQPPAMVPHKGQYILKEIPLLKQLFQVPMSVPKDFFGEHVKKGTVNAMRFLTAVSMEQPEMLEKVSRELWMRIWSRDEDITESQNILSAAEKAGMATAQAQHLLNKISTELVKSKLRETTGAACKYGAFGLPTTVAHVDGKTYMLFGSDRMELLAYLLGEKWMGPVPPTLNARL” the “soluble on expression in E. coli” value was “soluble”.
With “MRMTLAVHTRQYSIHSFNPSAPIPSKVFAEEVYFICKTEEGLTLVVSSELALDSLEQETNWSCLEVLGPLGFSLTGILSKIASTLADVQISIFALSSFDTDYILVKKDCLQNAMTALKKAGYKIIESKLEHHHHHH” the “soluble on expression in E. coli” value was “not soluble”.
For “MPYQQITVNVNDAVAERLADALMEHGALSAAIEDAYAGTQNEQAIFGEPGMPAEQIWQQSKVIALFGEHDEAAAIIQTATQECGLK”, the “soluble on expression in E. coli” value was “not soluble”.
With “MHDKMHDTGTRSDMARFNPLHGNPLKSRADVRRALDDSFAPLLPYFSPGGARVALSGTAAHFDRAAADLEGFARPLWGIAPLALSGDTFAHWPLLAKGIANGTDPAHPDYWGDVRQKDQRLVELAAIGFALRLAPQHLWEPLSDAQKENVSRYLLAARERNYADNNWKFFRVMVDMALDHLGIGFDRSLTETFQKELDDFYIADGWYRDGNYRRIDHYIAFAMHFYGLIYARLSKPDDAYAKRYRERARLFAGDFASWFDEDGGALAFGRSMTYRFACGGFWAGLAFADEEALPWGEIKGLYLSHLRWWAEKPIADRDGVLSIGYAYPQLTMSESYNSAGSPYWAFKAFLPLALPESHPFWQAQETLPKVSTNPHPLVHPGMVMMRAKGNVTALSSGQENLAMRGGPEKYAKFAYSSRYGFGVEVDERGFRTNGFDNILAFSDDGLHYRVRETNRKVLMAGANLRATWKPFPDVTVETTLVAAENWHVRLHRITSARALAVAEGGFAINRNDGERDVVSETGGKATADCGTDISAIVDLGSTISRHGVALKALPNTNLINAKTTVPQLRGEIPAGETMLACAVFAGVAGAESERALAAVPACPDLEALDRLFADRGVPVSAMAGEPQLEHHHHHH” the “soluble on expression in E. coli” value was “not soluble”.
In the case of “MNLDDIINSMTPEVYQRLSTAVELGKWPDGVALTEEQKENCLQLVMLWQARHNTEAQHMTIDTNGQMVMKSKQQLKEDFGISAKPIAMFK”, the “soluble on expression in E. coli” value is reported as “not soluble”.
In the case of “MAHHHHHHMGEGTAAAPPHSQEPRLRRRPRQLTVRHVVHVQPTSYFAQFERRCRHDALLYSPFLREDRVQARPKTLPPSLHREVGEPGVYAAYNAYIFADVAGQHDPLHHRRVCAAADHGEEEAVAARVEAGGDVVVATNVSSPPRPDSSKSLSAVQLSLTPLLSFTLDDMADTADGDAGMGNRVECESGSTRIGEAHRCHPPPPLLHGTPPEAGLPLHKTWHLFTSYVQRHFTAFPTALVHRYHLHHLAPSLFPNVGAAALMQGAGGAGNATGDRAARSGTAVGVAISTEASGSGSAVRAARAKPNVSNSSSSSAEDVVEYWPYSLKLRCIPEATLQLPYKQHATAKKTTQAQQRAEMAGSARQAPSTVNASLGHDAATAAAVPSPHLPAPRKRERQVSSSGDSASAPAYTVHASASSSTATAATPRVLPPPAAAARTRPPSAPPRRVAVVDGVTSLLPYPTPASALALLSTTFLRSLRTSSVVAAAAAAAAGTGEVPATPSTLTESRADWHGGFAASHQRVDVPSTGMVGMGGGALGFLGTGSAVPSKYRNVSGTFLELHLPAYCFPGGGCPVKPLLHDDDSAHASGAAAVVAEDTPSATSASPPAGEAACARREGDAVLGFGSADSSTYSCGPATVSMDESQKTAPRRWSSAPLKMDSQQLRPWGGYPGLWRGQCRAARLSMRASPWR”, the “soluble on expression in E. coli” value is reported as “soluble”.
For “VAIDYTRRPSSPAAPQGGVSLSKVTLSKAAPSVSLTKSGERQGAMRVNLNWSTGATPQPKKTGFFAKLAAAAGGNNGIDLDLGCLYELADGSKGVVQALGNSFGSLQAPPFIKLDADDRTGTVTGGENLHINLDRPEMFKRILIFAMIYDGAPNWAAVDGVVTLYPTSGPEVEVRLDTSNSSARICAIAMLQNTGQGITVTREVKYIEGSQADLDKTYSWGMKWAAGRK”, the “soluble on expression in E. coli” value was “not soluble”.
